Data taken from patent US20110135643A1 (BETH ISRAEL DEACONESS MEDICAL CENTER, published 2011).

B1: SIM2(87) (peptide)
peptide: TLDGFVFVV
notes: 9-mer peptide of SIM2
B2: SIM2(241) (peptide)
peptide: KLIFLDSRV
notes: 9-mer peptide of SIM2
B3: SIM2(237) (peptide)
peptide: SLDLKLIFL
notes: 9-mer peptide of SIM2
B4: SIM2(205) (peptide)
peptide: YQIVGLVAV
notes: 9-mer peptide of SIM2
B5: SIM2(244) (peptide)
peptide: FLDSRVTEV
notes: 9-mer peptide of SIM2

Each binder was assayed against T1, human HLA-A2.1 (HLA-A*0201) class I molecule on the surface of T2 cells (human) (assay: MHC stabilization and dissociation assay on T2 cells, BB7.2 staining, flow cytometry).
T1 construct: whole, on cells; The b2m chain is added because surface class I carries it
Procedure: Briefly, T2 cells were cultured for 6 hours in serum-free IMDM (ATCC) prior to the addition of candidate peptides at a concentration of 50 μg/250×10³ cells/ml and incubated overnight at 37° C. […] Cells were then washed three times with PBS and analyzed by flow cytometry. […] The relative binding affinity of a given peptide was calculated as MFI_{(peptide)}/MFI_{(negative peptide)}.
T2 cells were incubated overnight with 50 μg/ml of each candidate peptide at 37° C. in serum-free Iscove's Modified Dulbecco's Medium (IMDM). Cells were then incubated with Brefeldin A (Sigma, St. Louis, Mo.) at 10 μg/ml for 1 hour, washed, and incubated at 37° C. for 0, 2, 4 or 6 hours in the presence of Brefeldin A (50 ng/ml). Cells were then stained with BB7.2 mAb. For each time point, peptide-induced HLA-A2.1 expression was calculated as the difference of the mean fluorescence of peptide-loaded T2 cells and mean fluorescence of negative peptide-loaded T2 cells. The rate of dissociation is reflected by the loss of A2.1 expression over time.

Binding result, binds:
B1
B2
B3
B4
B5
